Assay [1] addresses T1, insulin-like growth factor II (IGF-II), amino acids 1-67 (human, UniProt P01344 25-91). Description: cell-based or functional assay.
Assay [2] concerns the target T2, IGF-IIE (amino acids 1-104 of pro-IGF-II) (human, UniProt P01344 25-128). In words: cell-based or functional assay.
For assay [3], the target named is insulin-like growth factor I (IGF-I) (UniProt P05019 49-118). In words: cell-based or functional assay.
Assay [4] addresses T1, insulin-like growth factor II (IGF-II), …. Description: SPR (Flexchip), Fab, 1st of duplicate.
The target in assay [5] is T2, IGF-IIE (amino acids 1-104 of …). Description: SPR (Flexchip), Fab, 1st of duplicate.
In assay [6] the target is T1, insulin-like growth factor II (IGF-II), …. Description: SPR, IgG on Protein G', then ligand, then BP; competitor BP2; 0 = no significant competition, 5 = competes strongly. As for the experimental part: (§1) BIACORE® T100 and a CM5 chip coated with Protein G were utilised to set up following assay. Approximately 1000 RU of Protein G′ was immobilized on a CM5 chip using standard amine chemistry immobilization method.
(§2) 4) Protein G′ surface was finally regenerated by injection of 10 mM Glycine pH 1.5-injected at 30 ul/min for 60 sec.

For assay [7], the target named is T2, IGF-IIE (amino acids 1-104 of …). The description is as above. As for the experimental part:
as §1, §2

In assay [8] the target is T1, insulin-like growth factor II (IGF-II), …. In words: SPR, IgG on Protein G', then ligand, then BP; competitor BP4; 0 = no significant competition, 5 = competes strongly. As for the experimental part: as §1, §2
For assay [9], the target named is T2, IGF-IIE (amino acids 1-104 of …). The description is as above. As for the experimental part:
as §1, §2

The target in assay [10] is T1, insulin-like growth factor II (IGF-II), …. In words: competition SPR (BIACORE T100), affinity in solution, free ligand read on huIR-A ECD; measurement 1. As for the experimental part:
(§3) Competition SPR (BIACORE®) was performed under conditions of partially mass-transport limited conditions according to previously described methodology (Nieba et al., 1996). Approximately 16,700 relative response units (RU) of huIR-A (-exon11) ectodomain was coupled by standard amine chemistry to a BIACORE® CM5 chip sensor. Uncoated flow-cell surface was used as a reference. […] Regeneration of the surface was achieved by injection of 30 ul NaCltrate/NaCl pH 4.5. […] These Req estimates were subsequently plotted against total concentrations of Fab used and the resulting inhibition curve was utilised to calculate dissociation constant (KD).

The target in assay [11] is T2, IGF-IIE (amino acids 1-104 of …). The description is as above. As for the experimental part: as §3
Assay [12] concerns the target T1, insulin-like growth factor II (IGF-II), …. In words: SPR (Flexchip), Fab, 2nd of duplicate.
In assay [13] the target is T2, IGF-IIE (amino acids 1-104 of …). Description: SPR (Flexchip), Fab, 2nd of duplicate.
For assay [14] the target is unchanged. In words: competition SPR (BIACORE T100), affinity in solution, free ligand read on huIR-A ECD; measurement 2. As for the experimental part:
as §3

T1 sequence (P01344 25-91): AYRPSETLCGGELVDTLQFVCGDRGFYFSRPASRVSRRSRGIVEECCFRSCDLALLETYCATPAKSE
insulin-like growth factor I (IGF-I), sequence (P05019 49-118 limits assumed): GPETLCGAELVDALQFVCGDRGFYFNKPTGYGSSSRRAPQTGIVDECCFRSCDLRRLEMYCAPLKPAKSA
T2 sequence (P01344 25-128): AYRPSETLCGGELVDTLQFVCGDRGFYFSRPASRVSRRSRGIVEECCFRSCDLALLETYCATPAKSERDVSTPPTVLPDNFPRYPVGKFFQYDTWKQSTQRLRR

B1: M0068-E03 Fab (Fab, V domains shown)
VH: EVQLLESGGGLVQPGGSLRLSCAASGFTFSEYVMAWVRQAPGKGLEWVSSIVSSGGYTKYADSVKGRFTISRDNSKNTLYLQMNSLRAEDTAVYYCAKDMTYSGDAFDVWGQGTMVTVSS
VL: DIQMTQSPSSLSASVGDRVTITCRASQSINTYLNWYQQKPGKAPKVLIHAASTLESGVPSRFSGSGSATEFTLTISSLQPEDFATFYCQQSYSVPFTFGPGTRLSSKR
notes: soluble Fab (sFab); heavy constant part carries His6 and myc tags; also called R0032-C01
Take B1: the “IC50, IGF-II stimulated Ba/F3 cell proliferation (MTS)” value in assay [1] came out at 2.27 µg/mL. Further, the “IC50, IGF-IIE stimulated Ba/F3 cell proliferation (MTS)” value in assay [2] was 5.74 µg/mL. The “IGF-I stimulated Ba/F3 cell proliferation, sFab at 50 µg/ml” value in [3] was ~30 % inhibition. The Kd in assay [4] turned out to be 0.93 nM; in assay [5] it was 0.66 nM.

B2: M0070-H08 IgG (parental) (antibody, V domains shown)
VH: EVQLLESGGGLVQPGGSLRLSCAASGFTFSRYWMIWVRQAPGKGLEWVSSIRSSGETKYADSVKGRFTISRDNSKNTLYLQMNSLRAEDTAVYYCARGPLSDYYDSSGYYFDAFDIWGQGTMVTVSS
VL: DIQMTQSPSSLSASAGDRVTITCRASQSISSYLNWYQQKPGKAPNLLIYTTSNLQGGVPSRFSGSGSGTDFTLTISSLQPEDFATYYCQQGYSFPLTFGGGTKVEIK
B2: the competition score turned out to be 3 score 0-5 in assay [6], 2 score 0-5 in assay [7], 2 score 0-5 in assay [8] and 1 score 0-5 in [9].

B3: M0070-H08 Fab (Fab, V domains shown)
VH: EVQLLESGGGLVQPGGSLRLSCAASGFTFSRYWMIWVRQAPGKGLEWVSSIRSSGETKYADSVKGRFTISRDNSKNTLYLQMNSLRAEDTAVYYCARGPLSDYYDSSGYYFDAFDIWGQGTMVTVSS
VL: DIQMTQSPSSLSASAGDRVTITCRASQSISSYLNWYQQKPGKAPNLLIYTTSNLQGGVPSRFSGSGSGTDFTLTISSLQPEDFATYYCQQGYSFPLTFGGGTKVEIKR
notes: soluble Fab (sFab); also called R0032-A07
On to B3, for which the Kd in [10] worked out at 3.24 nM; in [11] it was 4.83 nM; in [12], 1.1 nM; in assay [13], 0.39 nM; in assay [4] it was 3.3 nM; in [5], 0.36 nM.

B4: M0080-G03 Fab (Fab, V domains shown)
VH: EVQLLESGGGLVQPGGSLRLSCAASGFTFSFYQMMWVRQAPGKGLEWVSSISPSGGRTYYADSVKGRFTISRDNSKNTLYLQMNSLRAEDTAVYYCAKDIGLGYCSSTSCYTGTPLDYWGQGTLVTVSS
VL: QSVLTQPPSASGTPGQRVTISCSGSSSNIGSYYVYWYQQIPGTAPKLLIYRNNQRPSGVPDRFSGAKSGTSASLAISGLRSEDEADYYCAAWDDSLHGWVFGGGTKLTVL
With B4, the values for the Kd in assay [11] and in assay [14] were 29.3 nM and 21.2 nM, respectively.

B5: M0072-G06 Fab (Fab, V domains shown)
VH: EVQLLESGGGLVQPGGSLRLSCAASGFTFSEYVMWWVRQAPGKGLEWVSVISPSGGYTVYADSVKGRFTISRDNSKNTLYLQMNSLRAEDTAVYYCARDRGGATTLDYWGQGTLVTVSS
VL: DIQMTQSPSTLSASVGDRVTITCRASQTISSWLAWYQQKPGKAPKLMIYKAASLGSEVPSRFSGSGSGTEFTLTISSLQPEDFSTYYCQQYKTYPVTFGQGTRLEIKR
notes: soluble Fab (sFab); also called R0032-C05
With B5, the Kd in assay [10] was 3.99 nM; in assay [11], 6.36 nM; in assay [12], 1.4 nM; in [13], 0.89 nM; in [4], 0.58 nM; in assay [5], 0.56 nM. The “IC50, IGF-II stimulated Ba/F3 cell proliferation (MTS)” value in assay [1] stood at 8.7 µg/mL. For the same molecule, in [2], the “IC50, IGF-IIE stimulated Ba/F3 cell proliferation (MTS)” value came out at 2.5 µg/mL. Also, in assay [3], the “IGF-I stimulated Ba/F3 cell proliferation, sFab at 50 µg/ml” value is ~30 % inhibition.

B6: M0072-G06 IgG (parental) (antibody, V domains shown)
VH: EVQLLESGGGLVQPGGSLRLSCAASGFTFSEYVMWWVRQAPGKGLEWVSVISPSGGYTVYADSVKGRFTISRDNSKNTLYLQMNSLRAEDTAVYYCARDRGGATTLDYWGQGTLVTVSS
VL: DIQMTQSPSTLSASVGDRVTITCRASQTISSWLAWYQQKPGKAPKLMIYKAASLGSEVPSRFSGSGSGTEFTLTISSLQPEDFSTYYCQQYKTYPVTFGQGTRLEIK
As to B6, the competition score in [6] turned out to be 2 score 0-5; in [7], 2 score 0-5; in [8], 1 score 0-5; in assay [9], 1 score 0-5.

B7: M0072-E03 Fab (Fab, V domains shown)
VH: EVQLLESGGGLVQPGGSLRLSCAASGFTFSEYEMSWVRQAPGKGLEWVSSIYSSGGWTKYTDSVKGRFTISRDNSKNTLYLQMNSLRAEDTAVYYCAKGVHYDSSGLPIDWYFDLWGRGTLVTVSS
VL: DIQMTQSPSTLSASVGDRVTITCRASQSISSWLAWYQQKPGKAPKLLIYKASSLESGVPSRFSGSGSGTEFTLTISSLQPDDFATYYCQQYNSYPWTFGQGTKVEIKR
notes: soluble Fab (sFab); also called R0032-C03
Turning to B7, the Kd in assay [10] amounted to 2.62 nM; in assay [11] it was 5.32 nM; in assay [12] it was 0.3 nM; in assay [13] it was 0.22 nM; in assay [4] it was 0.75 nM; in assay [5] it was 0.096 nM. Moreover, the “IGF-I stimulated Ba/F3 cell proliferation, sFab at 50 µg/ml” value in assay [3] was ~30 % inhibition.

B8: M0072-E03 IgG (parental) (antibody, V domains shown)
VH: EVQLLESGGGLVQPGGSLRLSCAASGFTFSEYEMSWVRQAPGKGLEWVSSIYSSGGWTKYTDSVKGRFTISRDNSKNTLYLQMNSLRAEDTAVYYCAKGVHYDSSGLPIDWYFDLWGRGTLVTVSS
VL: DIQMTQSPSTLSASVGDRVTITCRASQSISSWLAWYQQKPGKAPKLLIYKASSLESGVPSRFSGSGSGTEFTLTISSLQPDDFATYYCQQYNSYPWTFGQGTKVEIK
Take B8: the competition score in [6] was found to be 4 score 0-5; in assay [7], 3 score 0-5; in assay [8], 4 score 0-5; in assay [9], 3 score 0-5.

B9: M0033-E05 Fab (Fab, V domains shown)
VH: EVQLLESGGGLVQPGGSLRLSCAASGFTFSHYSMWWVRQAPGKGLEWVSYIGPSGGHTRYADSVKGRFTISRDNSKNTLYLQMNSLRAEDTAVYYCARGLYYYDSSSVTHAFDLWGQGTMVTVSS
VL: DIQMTQSPSSLSASVGDRVTISCRASQGITNYLVWFQQKPGKAPRLLIYDASTLESGVPSRFSGSGSGTDFTLTISSLQPEDFATYYCQQADGFPLTFGEGTKVEMKR
notes: soluble Fab (sFab); also called R0032-A05
With B9, the Kd in [12] was found to be 5.5 nM; in assay [5], 0.87 nM.

B10: M0073-C11 Fab (Fab, V domains shown)
VH: EVQLLESGGGLVQPGGSLRLSCAASGFTFSPYDMWWVRQAPGKGLEWVSSISSSGGITAYADSVKGRFTISRDNSKNTLYLQMNSLRAEDTAVYYCARAGYSSSWGYYYYGMDVWGQGTTVTVSS
VL: QSALTQPPSVSVSPGQTASITCSGDRLGDKYASWYQQKPGQSPVLVIYQDTKRPSGIPERFSGSNSGSTATLTISGTQAMDEADYYCQAWDSSTVVFGGGTKLTVL
For the molecule B10, the figures for the Kd in assay [11] and in assay [14] were 20.2 nM and 19.1 nM, respectively.

B11: M0072-C06 IgG (parental) (antibody, V domains shown)
VH: EVQLLESGGGLVQPGGSLRLSCAASGFTFSAYIMTWVRQAPGKGLEWVSSISPSGGYTVYADSVKGRFTISRDNSKNTLYLQMNSLRAEDTAVYYCARDSGFGDPFDYWGQGTMVTVSS
VL: DIQMTQSPSSLSASVGDRVTITCRASQSIRNYLNWYQQKPGKAPKLLIYAASKLEDGVPSRFSGSGTGTDFTLTIRSLQPEDFASYFCQQSYSSPGITFGPGTKVEIK
For B11, the competition score is 3 score 0-5 in [6], 2 score 0-5 in [7], 2 score 0-5 in [8] and 1 score 0-5 in [9].

These data come from patent US20110165145A1 (published 2011).
